Data published in patent US20210063414A1, “METHODS FOR PREVENTING AND/OR TREATING BONE LOSS CONDITIONS BY MODULATING IRISIN” (Dana-Farber Cancer Institute, Inc., priority 2018, published 2021).

Target: T1, MLO-Y4 cell surface proteins (Mus musculus, UniProt B1AVY7)
T1 construct: endogenous in cells; host or cells: MLO-Y4
T1 sequence (B1AVY7 1-1312): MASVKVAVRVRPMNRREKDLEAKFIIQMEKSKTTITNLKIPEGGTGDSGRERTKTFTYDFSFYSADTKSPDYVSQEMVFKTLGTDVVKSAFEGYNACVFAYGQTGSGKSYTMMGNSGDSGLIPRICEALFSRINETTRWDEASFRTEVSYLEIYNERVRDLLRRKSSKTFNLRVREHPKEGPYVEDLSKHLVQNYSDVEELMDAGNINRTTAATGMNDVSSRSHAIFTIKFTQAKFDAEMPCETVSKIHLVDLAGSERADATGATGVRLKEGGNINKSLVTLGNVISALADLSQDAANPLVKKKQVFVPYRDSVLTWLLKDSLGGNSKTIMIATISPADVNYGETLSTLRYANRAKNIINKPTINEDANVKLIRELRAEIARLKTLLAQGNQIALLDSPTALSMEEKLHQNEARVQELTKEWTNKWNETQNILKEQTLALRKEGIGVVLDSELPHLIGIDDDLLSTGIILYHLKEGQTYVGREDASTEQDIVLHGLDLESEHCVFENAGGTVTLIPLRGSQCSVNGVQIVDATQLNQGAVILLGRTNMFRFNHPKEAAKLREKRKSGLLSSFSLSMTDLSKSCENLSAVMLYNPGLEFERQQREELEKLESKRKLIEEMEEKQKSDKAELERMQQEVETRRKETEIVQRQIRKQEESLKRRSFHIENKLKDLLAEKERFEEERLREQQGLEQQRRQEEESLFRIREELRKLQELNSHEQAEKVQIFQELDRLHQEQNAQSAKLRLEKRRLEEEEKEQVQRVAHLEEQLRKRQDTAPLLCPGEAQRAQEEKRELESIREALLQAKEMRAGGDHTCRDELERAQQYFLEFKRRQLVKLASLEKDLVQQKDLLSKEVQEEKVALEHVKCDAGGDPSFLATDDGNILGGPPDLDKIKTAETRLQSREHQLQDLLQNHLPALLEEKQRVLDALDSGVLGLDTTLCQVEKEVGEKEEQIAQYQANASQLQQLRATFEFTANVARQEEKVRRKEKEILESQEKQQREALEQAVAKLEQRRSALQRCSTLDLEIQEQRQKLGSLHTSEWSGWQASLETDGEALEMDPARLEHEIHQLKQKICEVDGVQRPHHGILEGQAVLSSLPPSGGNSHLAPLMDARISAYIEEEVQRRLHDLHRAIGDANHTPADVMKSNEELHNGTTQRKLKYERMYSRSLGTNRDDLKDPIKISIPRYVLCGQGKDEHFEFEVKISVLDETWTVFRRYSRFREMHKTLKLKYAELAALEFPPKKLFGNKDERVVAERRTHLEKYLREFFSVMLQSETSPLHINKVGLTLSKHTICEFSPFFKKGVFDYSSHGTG
Experiment: Crosslinking/co-immunoprecipitation/mass spectrometry (TMT quantitative proteomics) to identify irisin receptors
Assay type: binding
Details: co-precipitated protein Kif16b (KI16B_MOUSE)
Outline: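 Mouse MLO-Y4 cells were switched to serum-free FreeStyle medium for 4 h, chilled, then exposed to 10 nM His-tagged irisin (or adipsin as control) for 20 min. Cells were crosslinked with 1.5 mM DTSSP (30 min, ice), and bound proteins were pulled down on Ni-NTA and eluted with 250 mM imidazole. Eluates were separated by SDS-PAGE, trypsin-digested in gel, TMT 6-plex labelled and quantified by MS3-based LC-MS/MS on an Orbitrap Fusion Lumos.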

- TMT signal-to-noise ratio: 1117.61
Substance: adipsin
